# Laboratory results: the supplement of paper PMC7125110
# ± gives the standard error. For part of these data: Fewer inactive variants are shown than the library holds.
# B1: glmS ribozyme (parent)
# chain: AUAAAAGCGCCAGAACUACAGAAAUGUAGUUGACGAGGAGGAGGUUUAUCGAAUUUUCGGCGGAUGCCUCCAAA
# Legend:
# Conditions in all cases: with glucosamine-6-phosphate
# glucosamine-6-phosphate [1] = variants of: B1; experiment: kcat; higher = faster cleavage; RNA array
# Procedure, shortened: (§1)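 Tiles of sequenced MiSeq chips were imaged over ~14 h at 37 °C. On them, barcoded ribozyme variants had been transcribed in situ by E. coli RNA polymerase and were tracked via a hybridised Cy3 probe while glucosamine-6-phosphate (40 μM to 10 mM) in HEPES/KCl/Mg(OAc)2 buffer flowed in. Per-tile medians, normalised to baseline and to non-cleaving reference variants, were fit to one- or two-exponential decays for kobs, and weighted Michaelis–Menten fits gave kcat and KM.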
# glucosamine-6-phosphate [2] = variants of: B1; experiment: self-cleavage kobs at 640 uM GlcN6P; higher = faster cleavage; RNA array
# Procedure, shortened: as §1
# glucosamine-6-phosphate [3] = variants of: B1; experiment: self-cleavage kobs at 2500 uM GlcN6P; higher = faster cleavage; RNA array
# Procedure, shortened: as §1
# glucosamine-6-phosphate [4] = variants of: B1; experiment: self-cleavage kobs at 10000 uM GlcN6P; higher = faster cleavage; RNA array
# Procedure, shortened: as §1
# glucosamine-6-phosphate [5] = variants of: B1; experiment: self-cleavage kobs at 160 uM GlcN6P; higher = faster cleavage; RNA array
# Procedure, shortened: as §1
# glucosamine-6-phosphate [6] = variants of: B1; experiment: KM; higher = weaker cofactor use; RNA array
# Procedure, shortened: as §1
# glucosamine-6-phosphate [7] = variants of: B1; experiment: self-cleavage kobs at 40 uM GlcN6P; higher = faster cleavage; RNA array
# Procedure, shortened: as §1
Variant,kcat (glucosamine-6-phosphate [1]) [s⁻¹],self-cleavage kobs at 640 uM GlcN6P (glucosamine-6-phosphate [2]) [s⁻¹],self-cleavage kobs at 2500 uM GlcN6P (glucosamine-6-phosphate [3]) [s⁻¹],self-cleavage kobs at 10000 uM GlcN6P (glucosamine-6-phosphate [4]) [s⁻¹],self-cleavage kobs at 160 uM GlcN6P (glucosamine-6-phosphate [5]) [s⁻¹],KM (glucosamine-6-phosphate [6]) [µM],self-cleavage kobs at 40 uM GlcN6P (glucosamine-6-phosphate [7]) [s⁻¹]
A14C A52G U57G,0.000174 ± 4.6e-05,8.13e-05 ± 1.9e-05,8.49e-05 ± 2.9e-05,0.000182 ± 3.1e-05,–,–,–
G7A A36U A39C C68A C71G,1e-05 ± 4e-06,–,–,–,–,–,–
C11A A52G C58G,1.09e-05 ± 2.8e-06,–,–,–,< 1e-05,–,–
U45C C67U,0.00406 ± 0.00066,0.000935 ± 0.00014,0.00203 ± 0.00032,0.00337 ± 0.00031,0.000146 ± 5.8e-05,2250 ± 580,8.28e-05 ± 9.7e-06
U57A C58U,6.53e-05 ± 2.8e-06,–,–,2.39e-05 ± 8.3e-06,–,–,–
C11A U57G,< 1e-05,–,–,–,< 1e-05,–,–
G7U G60A,< 1e-05,< 1e-05,< 1e-05,< 1e-05,–,–,–
C16A C68U,9.12e-05 ± 2.9e-06,3.93e-05 ± 7.5e-06,6.55e-05 ± 6.5e-06,8.53e-05 ± 7.2e-06,–,878 ± 110,–
A64U C67A,2.58e-05 ± 3.2e-06,–,–,2.41e-05 ± 6.5e-06,–,–,–
G38U C70U,1.27e-05 ± 2.6e-06,–,–,–,–,–,–
C50G C71U,0.000123 ± 2.1e-05,0.000194 ± 2.7e-05,0.000103 ± 1.3e-05,–,0.000107 ± 1e-05,–,6.9e-05 ± 9.9e-06
G59A C68U,1.6e-05 ± 1.4e-06,–,–,–,–,–,–
U30G A64G,0.00607 ± 0.0017,–,–,0.0064 ± 0.0018,–,1440 ± 540,0.000178 ± 3.9e-05
U54G C71G,0.00104 ± 0.00019,0.000398 ± 9e-05,0.000909 ± 0.0002,0.0011 ± 0.00012,0.000192 ± 4.6e-05,511 ± 150,8.73e-05 ± 8.8e-06
U55A A64U,0.000202 ± 3.2e-05,–,7.6e-05 ± 1.1e-05,0.000138 ± 1.5e-05,–,4540 ± 1600,< 1e-05
U56G C71G,0.000632 ± 0.00018,0.000271 ± 4.6e-05,0.000512 ± 0.0001,0.000942 ± 0.00021,0.00014 ± 2.1e-05,–,6.71e-05 ± 1.8e-05
C8A G37U C70A,0.00017 ± 4.3e-05,0.000214 ± 6.2e-05,0.000331 ± 0.00011,0.000139 ± 3.4e-05,–,–,7.9e-05 ± 2.3e-05
C50U G63A,< 1e-05,–,–,–,< 1e-05,–,< 1e-05

Variant,kcat (glucosamine-6-phosphate [1]) [s⁻¹],self-cleavage kobs at 640 uM GlcN6P (glucosamine-6-phosphate [2]) [s⁻¹],self-cleavage kobs at 2500 uM GlcN6P (glucosamine-6-phosphate [3]) [s⁻¹],self-cleavage kobs at 10000 uM GlcN6P (glucosamine-6-phosphate [4]) [s⁻¹],self-cleavage kobs at 160 uM GlcN6P (glucosamine-6-phosphate [5]) [s⁻¹],KM (glucosamine-6-phosphate [6]) [µM],self-cleavage kobs at 40 uM GlcN6P (glucosamine-6-phosphate [7]) [s⁻¹]
G51A U54A,< 1e-05,–,–,–,–,–,–
U54A U55A,0.044 ± 0.016,–,–,0.0388 ± 0.0094,0.00297 ± 0.001,1290 ± 540,0.00147 ± 0.00017
C10U A14G,0.000181 ± 2.4e-05,5.02e-05 ± 7.8e-06,8.95e-05 ± 8.6e-06,0.000159 ± 1.6e-05,–,2130 ± 650,–
A48U U54G,0.000434 ± 0.00011,8.39e-05 ± 4.1e-05,0.000261 ± 0.0001,0.000397 ± 9.1e-05,6.29e-05 ± 1.9e-05,–,–
C61U C71G,< 1e-05,–,–,–,< 1e-05,–,–
C16A U31G,0.000292 ± 2.2e-05,9.42e-05 ± 1.8e-05,0.000177 ± 5e-05,0.000267 ± 4.3e-05,4.15e-05 ± 1.7e-05,1280 ± 200,–
A15G U65A C71A,0.000944 ± 0.0002,0.000466 ± 5.6e-05,0.000535 ± 0.00018,0.000965 ± 0.00023,–,755 ± 320,3.84e-05 ± 1.7e-05
G13C U45A,0.000315 ± 0.00011,6.93e-05 ± 3.2e-05,9.3e-05 ± 2.3e-05,0.000213 ± 3.9e-05,–,–,–
U49G C71U,0.00102 ± 0.00022,0.000246 ± 2.9e-05,0.00041 ± 6.9e-05,0.000902 ± 7.8e-05,–,2160 ± 970,3.07e-05 ± 9.2e-06
G7U A53C C58A U69G C70U,0.000741 ± 0.00023,–,0.000875 ± 0.00036,–,–,–,7.41e-05 ± 3.3e-05
C11U G66A U69A,5.61e-05 ± 6.6e-06,4.24e-05 ± 1.5e-05,4.46e-05 ± 1.3e-05,6.32e-05 ± 1.9e-05,–,–,–
A6U C71U,0.000302 ± 1.3e-05,5.53e-05 ± 9.2e-06,0.000149 ± 1.7e-05,0.000235 ± 2.4e-05,–,2710 ± 230,–
U31C,0.00939 ± 0.0013,0.00208 ± 7.4e-05,0.00415 ± 0.00014,0.00805 ± 0.00018,0.000489 ± 1.7e-05,2370 ± 430,0.000168 ± 2.9e-06
U31C A39C,0.00127 ± 0.00014,0.000259 ± 2.4e-05,0.00058 ± 5.1e-05,0.00102 ± 6.7e-05,6.64e-05 ± 9.6e-06,2620 ± 500,3.17e-05 ± 7.1e-06
A42C U55G,< 1e-05,–,–,–,–,–,< 1e-05
G44U C70U,3.72e-05 ± 5.6e-06,–,3.43e-05 ± 1.1e-05,3.29e-05 ± 6.6e-06,< 1e-05,–,< 1e-05
C50A C68G,5.05e-05 ± 1.7e-05,8.11e-05 ± 1.6e-05,5.89e-05 ± 1e-05,–,6.35e-05 ± 1.2e-05,–,2.54e-05 ± 1e-05
